In PMC12489471, “A multi-dentate, cooperative interaction between endo- and exo-ribonucleases within the bacterial RNA degradosome” (Nucleic Acids Research, 2025):

B1: RNase E 583-1061, avi-tagged: avi-tagged RNase E 583-1061 (protein)
chain: SGGEETKPTEQPAPKAEAKPERQQDRRKPRQNNRRDRNERRDTRSERTEGSDNREENRRNRRQAQQQTAETRESRQQAEVTEKARTADEQQAPRRERSRRRNDDKRQAQQEAKALNVEEQSVQETEQEERVRPVQPRRKQRQLNQKVRYEQSVAEEAVVAPVVEETVAAEPIVQEAPAPRTELVKVPLPVVAQTAPEQQEENNADNRDNGGMPRRSRRSPRHLRVSGQRRRRYRDERYPTQSPMPLTVACASPELASGKVWIRYPIVRPQDVQVEEQREQEEVHVQPMVTEVPVAAAIEPVVSAPVVEEVAGVVEAPVQVAEPQPEVVETTHPEVIAAAVTEQPQVITESDVAVAQEVAEQAEPVVEPQEETADIEEVVETAEVVVAEPEVVAQPAAPVVAEVAAEVETVAAVEPEVTVEHNHATAPMTRAPAPEYVPEAPRHSDWQRPTFAFEGKGAAGGHTATHHASAAPARPQPVE
modifications: left off: Avi tag, end not stated, kept
B2: E. coli PNPase core, lacking S1 and KH domains: truncated PNPase lacking the KH and S1 domains (protein)
chain: MLNPIVRKFQYGQHTVTLETGMMARQATAAVMVSMDDTAVFVTVVGQKKAKPGQDFFPLTVNYQERTYAAGRIPGSFFRREGRPSEGETLIARLIDRPIRPLFPEGFVNEVQVIATVVSVNPQVNPDIVAMIGASAALSLSGIPFNGPIGAARVGYINDQYVLNPTQDELKESKLDLVVAGTEAAVLMVESEAQLLSEDQMLGAVVFGHEQQQVVIQNINELVKEAGKPRWDWQPEPVNEALNARVAALAEARLSDAYRITDKQERYAQVDVIKSETIATLLAEDETLDENELGEILHAIEKNVVRSRVLAGEPRIDGREKDMIRGLDVRTGVLPRTHGSALFTRGETQALVTATLGTARDAQVLDELMGERTDTFLFHYNFPPYSVGETGMVGSPKRREIGHGRLAKRGVLAVMPDMDKFPYTVRVVSEITESNGSSSMASVCGASLALMDAGVPIKAAVAGIAMGLVKEGDNYVVLSDILGDEDHLGDMDFKVAGSRDGISALQMDIKIEGITKEIMQVALNQAKGARLHILGVMEQAINAPRGDISEFA
modifications: left off: Mycobacterium xenopi GyrA intein, C-terminal, cleaved | His8, C-terminal, cleaved

Assay: SEC-MALLS molar mass of PNPase and PNPase/RNase E complexes
Format: physicochemical
Description: Estimation of molar masses of PNPase and the various PNPase/RNase E complexes was carried out by size-exclusion chromatography with multi-angle laser light scattering (SEC-MALLS). Proteins (100 μl at ∼1 mg/ml concentration) were loaded onto a Superdex 200 10/300 Increase GL SEC column (GE Healthcare) at 0.5 ml/min using an AKTA Purifier FPLC system ([…]). Chromatograms were acquired using UNICORN software (GE Healthcare) at 280 nm. The eluent from the S200 column was analysed with an online DAWN HELEOS II MALLS instrument with eight detectors (Wyatt Technology), followed by an Optilab T-rEX differential refractometer (Wyatt Technology) at 25°C. Data collection and analysis were performed using ASTRA 6 software (Wyatt Technology). Eluted peaks from SEC column were evaluated by Zimm Plot, using a dn/dc value of 0.1850 ml/g. Bovine serum albumin was used as a standard to confirm the system performance (Supplementary Table S1).

[1] = Superdex 200, 25°C, buffer A (with 0.01% w/v b-DDM)
[2] = Superdex 200, 25°C, buffer A: 50 mM Tris pH 7.5, 100 mM NaCl, 100 mM KCl, 0.01% w/v b-DDM, 1 mM TCEP
[3] = Superdex 200, 25°C, buffer B: A w/o bDDM
[4] = buffer A (with 0.01% w/v b-DDM)
[5] = buffer A, expected: PNPase trimer, or trimer:RNase E 1:1 ratio
[6] = buffer B, expected: trimer:RNase E 1:1 ratio for complexes
[7] = buffer B: A w/o bDDM, second line in buffer B

Molecule	Mw weight-averaged solute molar mass [1]	Mn number-averaged solute molar mass [2]	Mn number-averaged solute molar mass [3]	Mw weight-averaged solute molar mass [3]	Polydispersity (Mn/Mw) [4]	Difference Mn from expected mass [5] [%]	Difference Mn from expected mass [6] [%]	Difference Mn from expected mass (buffer B, second line in buffer B) [%]	Polydispersity (Mn/Mw) (buffer B: A w/o bDDM)	Mn number-averaged solute molar mass [7]	Mw weight-averaged solute molar mass [7]	Polydispersity (Mn/Mw) [7]
Bovine serum albumin: standard to confirm the system performance [reference compound]	63,270 Da	63,250 Da	63,300 Da	63,350 Da	1.000	4.8	4.7	3.8	1.001	63,900 Da	64,200 Da	1.005
E. coli PNPase: polynucleotide phosphorylase, trimer	204,900 Da	204,600 Da	–	–	1.001	11.5	–	–	–	–	–	–
B1	–	–	52,930 Da	53,310 Da	–	–	4.7	–	1.007	–	–	–
B2	163,600 Da	163,300 Da	–	–	1.002	8.7	–	–	–	–	–	–
